B1: NLV3 TCR beta chain (CDR3β only) (parent)
chain: ASSPTGGSPSPLH
B2: NLV3 TCR beta chain (CDR3β only) (parent)
chain: ASSPTGGSPSPLH
partner: MLVPMVATV

Variants of: B1
Assay: T-Switch: Jurkat TCRβ−/− cells expressing a CDR3 saturation-mutagenesis library, stained with two peptide-HLA-A*02:01 tetramers (original and novel peptide) plus anti-CD3, FACS-sorted into four gates, gDNA sequenced
Conditions: with both tetramers (double-negative gate, binds neither): HLA-A*02:01 with … and with …, tetramers 1 µg/mL, 30 min on ice, SP, DP and SW gates expanded about 10 days between rounds ('two to three rounds of selection' in the Methods), gate DN: OPPOSITE: higher = more of the variant in the gate that binds neither peptide = LESS binding (or no expression; inferred). Fold enrichment of the CDR3 variant in one FACS gate of a two-tetram, unresolved parent, parent is a CDR3 fragment, scale: fold enrichment, numbering: sequential-on-construct, sequence starts at 1
Work on […] (CDR3 as printed); T5W derived by comparing it with the table's wild-type CDR3 ASSPTGGSPSPLH yielded an enrichment of 0.
In the case of […] (CDR3 as printed); T5P derived by comparing it with the table's wild-type CDR3 ASSPTGGSPSPLH, the enrichment is reported as 1.04.
[…] (CDR3 as printed); T5V derived by comparing it with the table's wild-type CDR3 ASSPTGGSPSPLH was tested, and the enrichment was 0.249.
[…] (CDR3 as printed); T5S derived by comparing it with the table's wild-type CDR3 ASSPTGGSPSPLH showed an enrichment of 0.633.
For […] (CDR3 as printed); T5Y derived by comparing it with the table's wild-type CDR3 ASSPTGGSPSPLH, the enrichment was 0.587.
[…] (CDR3 as printed); T5R derived by comparing it with the table's wild-type CDR3 ASSPTGGSPSPLH gave an enrichment of 1.07.
Variant […] (CDR3 as printed); T5Q derived by comparing it with the table's wild-type CDR3 ASSPTGGSPSPLH has an enrichment of 1.16.

Same assay, conditions: with both tetramers (double-positive gate): HLA-A*02:01 with … and with …, tetramers 1 µg/mL, 30 min on ice, SP, DP and SW gates expanded about 10 days between rounds ('two to three rounds of selection' in the Methods), gate DP: higher = more of the variant in the gate that binds both peptides. Fold enrichment of the CDR3 variant in one FACS gate of a two-tetramer stain. SP/DP/SW gates were expanded and re-sorted bef, unresolved parent, parent is a CDR3 fragment, scale: fold enrichment, numbering: sequential-on-construct, sequence starts at 1
Variant […] (CDR3 as printed); T5W derived by comparing it with the table's wild-type CDR3 ASSPTGGSPSPLH has an enrichment of 0.
Variant […] (CDR3 as printed); T5P derived by comparing it with the table's wild-type CDR3 ASSPTGGSPSPLH has an enrichment of 0.
In the case of […] (CDR3 as printed); T5V derived by comparing it with the table's wild-type CDR3 ASSPTGGSPSPLH, the enrichment is reported as 0.
In the case of […] (CDR3 as printed); T5S derived by comparing it with the table's wild-type CDR3 ASSPTGGSPSPLH, the enrichment is reported as 0.
With […] (CDR3 as printed); T5Y derived by comparing it with the table's wild-type CDR3 ASSPTGGSPSPLH the enrichment was 0.
With […] (CDR3 as printed); T5R derived by comparing it with the table's wild-type CDR3 ASSPTGGSPSPLH the enrichment was 0.
[…] (CDR3 as printed); T5Q derived by comparing it with the table's wild-type CDR3 ASSPTGGSPSPLH gave an enrichment of 0.

Same assay, conditions: with both tetramers (double-negative gate, binds neither): HLA-A*02:01 with … and with …, tetramers 1 µg/mL, 30 min on ice, SP, DP and SW gates expanded about 10 days between rounds ('two to three rounds of selection' in the Methods), gate DN: OPPOSITE: higher = more of the variant in the gate that binds neither peptide = LESS binding (or no expression; inferred). Fold enrichment of the CDR3 variant in one FACS gate of a two-tetram, unresolved parent, parent is a CDR3 fragment, zero in all gates, scale: fold enrichment, numbering: sequential-on-construct, …
[…] (CDR3 as printed); G7P derived by comparing it with the table's wild-type CDR3 ASSPTGGSPSPLH showed an enrichment of 0.
Work on […] (CDR3 as printed); S2L derived by comparing it with the table's wild-type CDR3 ASSPTGGSPSPLH yielded an enrichment of 0.

Same assay, conditions: with both tetramers (double-positive gate): HLA-A*02:01 with … and with …, tetramers 1 µg/mL, 30 min on ice, SP, DP and SW gates expanded about 10 days between rounds ('two to three rounds of selection' in the Methods), gate DP: higher = more of the variant in the gate that binds both peptides. Fold enrichment of the CDR3 variant in one FACS gate of a two-tetramer stain. SP/DP/SW gates were expanded and re-sorted bef, unresolved parent, parent is a CDR3 fragment, zero in all gates, scale: fold enrichment, numbering: sequential-on-construct, sequence starts at 1
In the case of […] (CDR3 as printed); G7P derived by comparing it with the table's wild-type CDR3 ASSPTGGSPSPLH, the enrichment is reported as 0.
[…] (CDR3 as printed); S2L derived by comparing it with the table's wild-type CDR3 ASSPTGGSPSPLH was tested, and the enrichment was 0.

Variants of: B2
Assay: as above
Conditions: with HLA-A*02:01 with peptide … (NLV 3-1, the original bait), tetramers 1 µg/mL, 30 min on ice, DP and SW gates expanded about 10 days between rounds ('two to three rounds of selection' in the Methods), gate SP: higher = more of the variant in the gate that binds the original peptide and not the novel one = retained original binding. Fold enrichment of the CDR3 variant in one FACS gate of a two-tetra, unresolved parent, parent is a CDR3 fragment, scale: fold enrichment, numbering: sequential-on-construct, sequence …
In the case of […] (CDR3 as printed); G6Q derived by comparing it with the table's wild-type CDR3 ASSPTGGSPSPLH, the enrichment is reported as 0.
Work on […] (CDR3 as printed); H13I derived by comparing it with the table's wild-type CDR3 ASSPTGGSPSPLH yielded an enrichment of 11.3.
[…] (CDR3 as printed); G6P derived by comparing it with the table's wild-type CDR3 ASSPTGGSPSPLH was tested, and the enrichment was 0.
For […] (CDR3 as printed); A1L derived by comparing it with the table's wild-type CDR3 ASSPTGGSPSPLH, the enrichment was 0.
For […] (CDR3 as printed); G6S derived by comparing it with the table's wild-type CDR3 ASSPTGGSPSPLH, the enrichment was 10.5.
With […] (CDR3 as printed); L12E derived by comparing it with the table's wild-type CDR3 ASSPTGGSPSPLH the enrichment was 0.
[…] (CDR3 as printed); A1F derived by comparing it with the table's wild-type CDR3 ASSPTGGSPSPLH gave an enrichment of 0.
Work on […] (CDR3 as printed); G7N derived by comparing it with the table's wild-type CDR3 ASSPTGGSPSPLH yielded an enrichment of 0.
Work on […] (CDR3 as printed); H13S derived by comparing it with the table's wild-type CDR3 ASSPTGGSPSPLH yielded an enrichment of 7.33.
[…] (CDR3 as printed); G6K derived by comparing it with the table's wild-type CDR3 ASSPTGGSPSPLH gave an enrichment of 0.
Work on […] (CDR3 as printed); A1V derived by comparing it with the table's wild-type CDR3 ASSPTGGSPSPLH yielded an enrichment of 0.479.
In the case of […] (CDR3 as printed); H13Q derived by comparing it with the table's wild-type CDR3 ASSPTGGSPSPLH, the enrichment is reported as 5.02.
Variant […] (CDR3 as printed); H13D derived by comparing it with the table's wild-type CDR3 ASSPTGGSPSPLH has an enrichment of 8.55.
With […] (CDR3 as printed); G7F derived by comparing it with the table's wild-type CDR3 ASSPTGGSPSPLH the enrichment was 0.
Work on […] (CDR3 as printed); G6H derived by comparing it with the table's wild-type CDR3 ASSPTGGSPSPLH yielded an enrichment of 0.
In the case of […] (CDR3 as printed); H13M derived by comparing it with the table's wild-type CDR3 ASSPTGGSPSPLH, the enrichment is reported as 6.07.
With […] (CDR3 as printed); A1Y derived by comparing it with the table's wild-type CDR3 ASSPTGGSPSPLH the enrichment was 0.
[…] (CDR3 as printed); A1D derived by comparing it with the table's wild-type CDR3 ASSPTGGSPSPLH was tested, and the enrichment was 0.
Work on […] (CDR3 as printed); A1E derived by comparing it with the table's wild-type CDR3 ASSPTGGSPSPLH yielded an enrichment of 0.
With […] (CDR3 as printed); A1S derived by comparing it with the table's wild-type CDR3 ASSPTGGSPSPLH the enrichment was 4.29.
[…] (CDR3 as printed); H13N derived by comparing it with the table's wild-type CDR3 ASSPTGGSPSPLH showed an enrichment of 7.17.
[…] (CDR3 as printed); A1R derived by comparing it with the table's wild-type CDR3 ASSPTGGSPSPLH gave an enrichment of 0.
With […] (CDR3 as printed); G7W derived by comparing it with the table's wild-type CDR3 ASSPTGGSPSPLH the enrichment was 0.
In the case of […] (CDR3 as printed); H13G derived by comparing it with the table's wild-type CDR3 ASSPTGGSPSPLH, the enrichment is reported as 0.848.
